In patent US20170122944A1:

Assays:
[1] = target: Factor D in C1q-depleted human serum (human) (UniProt P00746); experiment: cell-based or functional assay
[2] = target: recombinant human Factor D (human) (UniProt P00746); experiment: cell-based or functional assay

For Lampalizumab (Fab), the Hemolytic Mean (rabbit erythrocyte lysis assay; Thermal control) [1] was 96, the Hemolytic Mean (rabbit erythrocyte lysis assay; Unstressed control) [1] was 81 and the TR-FRET Activity (Thermal control) [2] was 103%. The TR-FRET Activity (Unstressed control) [2] was 93%.

Substance “Lampalizumab subjected to oxidation conditions (30 mM AAPH) (Fab)” has a Hemolytic Mean (rabbit erythrocyte lysis assay; Oxidized, 30 mM AAPH) [1] of 82 and a TR-FRET Activity (Oxidized, 30 mM AAPH) [2] of 63%.

For “Lampalizumab subjected to thermal stress (Fab)”, the Hemolytic Mean (rabbit erythrocyte lysis assay; Thermal Stress) [1] was 102 and the TR-FRET Activity (Thermal Stress) [2] was 86%.
